Target: T1, 10E8-GT10.2 epitope scaffold (designed scaffold 10E8-GT10.2 with …, N-linked glycosylation sites added (positions not given))
T1 chain: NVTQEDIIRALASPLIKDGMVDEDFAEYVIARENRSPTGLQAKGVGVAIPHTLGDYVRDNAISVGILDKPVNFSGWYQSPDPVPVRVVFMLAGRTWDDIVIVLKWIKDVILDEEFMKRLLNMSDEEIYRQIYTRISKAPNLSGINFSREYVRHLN

Binder	Kd
NHP-10E8_MPER-GT10v55_W21-02 (antibody, V domains shown) VH: EVQLVESGGGLVQPGGSLRLSCAASGFTFSNYWMSWVRQAPGKGLEWVGFIKNKADGGTAAYAESVKGRFTISRDDSKNTLYLQMNSLKTEDTAVYYCARAGAPYYNFWSGYYESYDAFDFWGQGLRVTVSS VL: QPVLTQPTSLSASPGASARLTCTLRSGISVGSYRIFWYQQKPGSPPRYLLNYHTDSDKHQGSGVPSRFSGSKDASANAGILLISGLQSEDEADYYCMIWHNNAVLFGGGTRLTV	4.56 µM
NHP-10E8_MPER-GT10v55_W26-02 (antibody, V domains shown) VH: EVQLVESGGGLAKPGGSLRLSCAASGFTFSDYYMDWVRQAPGKGLEWVSRISNGGGSTWYADSVKGRFTISRENAKNTLYLQMNSLRAEDTAVYYCASELSYYNFWSGYGASYGLDSWGQGVVVTVSS VL: QPVLTQPTSLSASPGASARLTCTLRSGISVGSYRIFWYQQKPGSPPRYLLNYHTDSDKHQGSGVPSRFSGSKDASANAGILLISGLQSEDEADYYCMIWHNNAYIFGAGTRLTV	3.09 µM
MPER18_d21_45.2_v55_m15_C11 (antibody, V domains shown) VH: QVQLQESGPGLVKPSETLSLTCTVSGGSISSYYWNWIRQPPGKGLEWIGYIFYSGTTNYNPSLKSRVTISVDTSKNQFSLKVRSVTAADTAVYYCAREPPYYDFWSGLSMGVGSFDIWGQGTMVTVSS VL: DIVMTQSPLSLPVSLGDQASISCRSSQTIVYSSGYTYLEWYLQKPGQSPKLLIYKVSNRFSGVPDRFSGSGSGTDFTLKISRVEAEDLGVYFCFQGSHVPWTFGGGTKLEIK	0.00691 µM
MPER18_d21_45.2_v55_m15_D07 (antibody, V domains shown) VH: QVQLQESGPGLVRPSETLSLTCTVSGGSISSYYWSWIRQPPGKGLEWIGYIYYSGSTNYNPSLKSRVTISVDTSKNQFSLKLNSVTAADTAVYYCTREPPYYDFWSELSLGVGAFDIWGQGTMVTVSS VL: DIVMTQSPLSLPVSLGDQASISCRSSQTIVHSNGYTYLEWYLQKPGQSPKLLIYKVSNRFSGVPDRFSGSGSGTDFTLKISRVEAEDLGVYYCFQGSHVPWTFGGGTKLEIK	0.00279 µM
MPER18_d21_45.2_v55_m5_D04 (antibody, V domains shown) VH: QVQLQESGPGLVKPSETLSLTCTVSGGSISSYYWSWIRQPPGKGLEWIGHIYYSGSTNYNPSLKGRVTISVDTSKNQFSLKLTSVTAADTAVYYCAREPPYYDFWSGLSMGVGAFDIWGQGTMVTVSS VL: DVLMTQTPLSLPVSLGDQASISCRSSQSIVHSNGYTYVEWYLQKPGQSPKLLIYKVSNRFSGVPDRFTGSGSGTDFTLKISRVEAADLGVYYCFQGSHVPYTFGGGTKLEIK	0.000714 µM
MPER18_d21_45.2_v55_m15_E09 (antibody, V domains shown) VH: QVQLQESGPGLVKPSETLSLTCTVSGGSISNYYWSWIRQPPGKGLEWIGYFYYSGTTNYNPSLKSRVTISVDTSKNQFSLKLSSVTAADTAVYYCAREPPYYDFWSGLSMGVGAFDIWGQGTMVTVSS VL: DVLMTQTPLSLPVSLGDQASISCRSSQSIVYSNGYTYLEWYLQKPGQSPKLLIYKVSNRFSGVPDRFSGSGSGTDFTLKISRVEAEDLGVYYCFQGSHVPWTFGGGTKLEIK	0.0148 µM
MPER18_d21_45.2_v55_m5_E10 (antibody, V domains shown) VH: QVQLQESGPGLVKPSETLSLTCSVSGGSISGYYWSWIRQPPGKGLEWIGYIFYSGSTNYNPSLKSRVTISVDTSKNQFSLKLTSVTAADTAVYYCAREPPYYDFWSGLSMGVGAFDIWGQGTMVTVSS VL: DIVMTQTPLSLPVSLGDQASISCSSSQNIVHSNGYTYLEWYLQKPGQSPKLLIYKVSNRFSGVPDRFSGSGSGTDFTLKISRVEAEDLGVYYCFQGSHVPYTFGGGTKLEIK	0.000571 µM
MPER18_d21_45.2_v55_m15_D04 (antibody, V domains shown) VH: QVQLQESGPGLVKPSETLSLTCTVSGGSISGYYWSWIRQPPGKGLEWIGYIYYSGSTNYNPSLKSRVTISVDTSKNQFSLKLSSVTAADTAVYYCAREPPYYDFWSGLSMGVGAFDFWGQGTMVTVSS VL: DVLMTQSPLSLPVSLGDQASISCRSSQSIVHSNGNTYLEWYLQKPGQSPKLLIYKVSNRFSGVPDRFSGSGSGTDFTLRISRVEAEDLGVYYCFQGSHVPCTFGGGTKLEIK	0.0219 µM
NHP-10E8_MPER-GT10v55_W21-08 (antibody, V domains shown) VH: EVQLVESGGGLVQPGGSLRLSCAASGFTFSDYYMYWVRQAPGKGLEWVGFIRSKAYGGTAEYAASVKGRFTISRDDSKSIAYLQMSSLKTEDTAVYYCTRALPYYNFWSGYYTHFDAFDFWGQGLRVTVSS VL: QAAPTQPPSVSGSPGQSVTISCTGTSSDIGYYNAVSWYQQHPGKAPKLMIYEVSKRPSGVSDRFSGSKSGNTASLTISGLQAEDEADYYCSSYAGSNTLLFGGGTRLTV	13.2 µM
NHP-10E8_MPER-GT10v55_W26-07 (antibody, V domains shown) VH: QVQLQESGPGLVKPSETLSLTCAVSGGSFSSYWWGWIRQTPGKGLEWIGSIYGSSGTTEYNPSHKSRATISRDTSENQFSLKLSSVTAADTAVYYCARSGEWPYNFWGGTHNPPHWYFDLWGPGTPIIISS VL: DVVMTQSPLSLSITPGQPASISCRSSHSLIHSNGNTYLSWYQQKPGQPPRRLIYEVSKQDSGVPERFSGSGAGTDFTLKISRVEAEDVGIYYCGQGTHLPLTFGPGTKLDIK	0.0326 µM
NHP-10E8_MPER-GT10v55_W10-11 (antibody, V domains shown) VH: EVQLVESGGGLVQPGGSLRLSCAASGFAFSDYTMDWVRQAPGKGLEWVGFIRSRDYGGKVDYAASVKGRFTISRDDSKNTAYLHMSSLKTEDTAVYYCTRSKRHYSFWSGDYPHYGLDSWGQGVVVTVSS VL: QSVVTQPPSVSGDPGQRVTIYCTGNSSNIGGYDVYWYQQVPGTAPKLLMYENNKRPSGVSDRFSGSKSGTSASLTITGLQSEDEAEYYCETWDNSLNGRVFGGGTRLTV	4.16 µM
NHP-10E8_MPER-GT10v55_W10-12 (antibody, V domains shown) VH: EVHLVESGGGLVQPGGSLRLSCAASGFTFSDYAMDWVRQAPGKGLEWVGFIGSKDYGGTVEYAASVKGRFTISRDDLKNTAYLQMSRLKTEDTAVYYCTRSKTCYSFWSGYYPHYGLDSWGQGVVVTVSS VL: QSVLTQPPSVSGDPGQRVTISCTGNSSNIGGFDVYWYQLLPGTAPKLLIYENTKRPSGISDRFSGSKSGTSASLTITGLQSEDEAEYYCETWDNSLNGRLFGGGTRLTV	0.752 µM
NHP-10E8_MPER-GT10v55_W26-01 (antibody, V domains shown) VH: QLQLQESGPGLVKPSETLSLTCAVSGGSISSNYWSWIRQPPGKGLEWIGRISGSGGSTDYNPSLKSRVTISTDTSKNQFSLKLSSVTAADTAVYYCAGNSHYYNFWSGYYGDNSLDVWGRGVLVTVSS VL: SYDVTQPRSVSVSPGQTARITCGGDNIGSKNVHWYQQKPAQAPVLVIYYDSDRPSGIPERFSGSNSGNTATLTISGVEAGDEADYYCQVWDSSSDHRLFGGGTRLTV	3.69 µM
NHP-10E8_MPER-GT10v55_W21-05 (antibody, V domains shown) VH: EVRLVESGGGLVQPGGSLRLSCAASGFTFSDYYMSWVRQAPGKGPEWVGFIRNKANGGTAEYAASVKGRFTISRDDSKSIASLQMNSLKTEDTAVYYCARDTYTYNFWSGYYRSNSLDVWGRGVLVTVSS VL: SYDLTQPPSVSVSPGQTARITCGGDNIGSEAVHWYQQKPPQAPVQVIYSDSERPSGIPERFSGSKSGNTATLTISGVEAGDEADYYCQVWDISSDHYIFGAGTRLTV	2.41 µM
NHP-10E8_MPER-GT10v55_W21-03 (antibody, V domains shown) VH: EVHLVESGAGLVQPGGSLRLSCAASGFTFRNSWMSWVRQAPGKGLEWIARIKRKADGETTDYAASVKGRFTLSRDDSKNTVYLQMDSLKTEDTAVYYCTTDQGYYNFWSGNYDYYGLDSWGQGVVVAVSS VL: DIQMTQSPSSLSAFVGDRVTITCRASQGISTHLNWYQQKPGKAPKRLIYTSSNLETGVPSRFSGSGSGTDFTLTISSLQPEDFATYYCLQYNSDPWTFGQGTKVEIK	8.32 µM
NHP-10E8_MPER-GT10v55_W10-10 (antibody, V domains shown) VH: EVQVVESGGGLVQPGGSLRLSCAASGFTFSDYAMDWVRQAPGKGLEWVGFIRSKDYGGTAEYAASVKGRFTISRDDSKNTAYLQMSSLKTEDTAVYYCTRDRRYYSFWSGYDRGWYFDLWGQGALVTVSS VL: DIVMTQTPLSLPVTLGEPASISCRSSQSLLNSEDGNTSLAWYLQKPGQSPQLLIYEVSNRASGVPDRFSGSGSDTDFTLKISRVEAEDVGVYYCMQPLEFPPTFGQGTKVEIK	0.0956 µM
NHP-10E8_MPER-GT10v55_W26-04 (antibody, V domains shown) VH: EVQLVESGGGLVQPGGSLRLSCAASGFTFSSYGMHWVRQAPGKGLEWVAVIWYDGSKKYYADSVKDRFTISRDNSKNMLYLQMNNLKLEDTAVYYCARGGAYYNFWSGYYTLLNRFDVWGPGVLVTVSS VL: DIVMTQTPLSLPVTPGEPASISCRSSQSLLDSEDGNTYLDWYLQKPGQSPQLLIYEVSNRASGVPDRFSGSGSDTDFTLKISRVEAEDVGVYYCMQGLEFPYSFGQGTKVEIK	5.05 µM
NHP-10E8_MPER-GT10v55_W21-01 (antibody, V domains shown) VH: EVRLVESGGGLVQPGGSLRLSCAASGFTFSDYYMSWVRQAPGKGPEWVGFIRNKANGGTAEYAASVKGRFTISRDDSKSIASLQMNSLKTEDTAVYYCARAPLHYNFWSGYYTDYGLDSWGQGVVVTVSS VL: DIVMTQSPDSLAVSLGERVTINCKSSQSLLYSSNNKNYLAWYQQKPGQAPKLLIYWASTRESGVPNRFSGSGSGSDFTLTISGLQAEDVAVYYCQQYYSTPHSFGQGTKVEIK	6.75 µM
NHP-10E8_MPER-GT10v55_W21-06 (antibody, V domains shown) VH: EVRLVESGGGLVQPGGSLRLSCAASGFTFSDYYMSWVRQAPGKGPEWVGFIRNKANGGTAEYAASVKGRFTISRDDSKSIASLQMNSLKTEDTAVYYCAREKVYYNFWSGYLENYGLDSWGQGVVVTVSS VL: DVVMTQSPLSLPITPGQPASISCRSSQSLVYSDGKTYLNWYQQKPGQPPRRLIYQVSNRDSGVPDRFSGSGAGTDFTLKISRVEAEDVGVYYCMQGTHLPYSFGQGTKVEIK	5.92 µM
NHP-10E8_MPER-GT10v55_W21-07 (antibody, V domains shown) VH: EVQLVESGGGLVQPGGSLRLSCAASGFTFSDYAMDWVRQAPGKGLEWVGFIRSKAYGGTAEYAASVKGRFTISRDDSKNTAYLQMSSLKTEDTAVYYCTRAARGYNFWSGYYTGYGLDSWGQGVVVTVSS VL: EIVMTQSPATLSLSPGERATLSCRTSQSVSSYVAWYQQKPEQAPRLLIYGASSRATGIPDRFSGGGSGTDFTLTISSLEPEDFAVYYCQQYSNWPYSFGQGTKVEIK	7.64 µM
NHP-10E8_MPER-GT10v55_W21-09 (antibody, V domains shown) VH: EVRLVESGGGLVQPGGSLRLSCAASGFTFSDYYMSWVRQAPGKGPEWVGFIRNKANGGTAEYAASVKGRFTISRDDSKSIASLQMNSLKTEDTAVYYCARESPYYNFWSGYYGTNDAFDFWGQGLRVTVSS VL: QPVLTQSPSASASLGASVKLTCTLSSGHSSYAIAWHQQQQGKAPRYLMRLNSVGSHSKGDGIPDRFSGSSSGAERYLTISNLQSEDEADYYCQTWTTGIQVFGGGTRLTV	3.32 µM

Source: article PMC11147780, “Vaccination induces broadly neutralizing antibody precursors to HIV gp41” (Nature Immunology, 2024)
